Four molecules from patent WO2011040973A2 (dated 2011) can be followed below.

Experiment [1] concerns the target T1, human dipeptidyl peptidase IV (DPPIV, CD26), expressed in HEK293 cells (human, UniProt P27487 1-766).
T1 construct: whole, on cells; Used as lysate of transfected HEK293 cells coated on plates (ELISA), on the cells (flow cytometry screening) and as immunoprecipitate; also called huCD26; HEK293 huCD26+
Briefly: ELISA on cell-lysate-coated plates (HEK293 huCD26+), Fig. 3. For orientation: An ELISA detects its analyte on a solid surface through an enzyme-linked reagent.

The target in experiment [2] is T2, huFAP coated on a surface plasmon resonance chip (human, UniProt Q12884 26-760, limits assumed).
T2 construct: also called human FAP
T2 sequence (looked up): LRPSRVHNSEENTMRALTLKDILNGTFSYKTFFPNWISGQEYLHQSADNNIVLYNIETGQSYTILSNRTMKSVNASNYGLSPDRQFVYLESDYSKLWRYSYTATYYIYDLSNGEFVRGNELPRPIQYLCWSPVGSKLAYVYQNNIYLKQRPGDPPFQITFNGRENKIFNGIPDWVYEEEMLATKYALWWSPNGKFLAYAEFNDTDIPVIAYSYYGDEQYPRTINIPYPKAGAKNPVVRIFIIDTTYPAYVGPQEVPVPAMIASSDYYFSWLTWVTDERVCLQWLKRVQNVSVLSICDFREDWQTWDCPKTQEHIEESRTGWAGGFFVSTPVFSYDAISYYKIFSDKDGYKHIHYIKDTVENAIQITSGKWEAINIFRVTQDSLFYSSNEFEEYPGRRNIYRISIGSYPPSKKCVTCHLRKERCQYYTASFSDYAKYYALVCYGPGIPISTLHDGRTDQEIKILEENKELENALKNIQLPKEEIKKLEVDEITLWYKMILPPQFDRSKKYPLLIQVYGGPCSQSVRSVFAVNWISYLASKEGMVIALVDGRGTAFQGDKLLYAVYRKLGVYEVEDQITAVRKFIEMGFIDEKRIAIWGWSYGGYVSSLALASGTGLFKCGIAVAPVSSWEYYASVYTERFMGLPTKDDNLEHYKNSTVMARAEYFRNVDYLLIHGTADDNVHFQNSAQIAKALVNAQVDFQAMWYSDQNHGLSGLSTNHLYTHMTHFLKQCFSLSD
Nature of the experiment: surface plasmon resonance, low-density huFAP coated chip. Background: Surface plasmon resonance follows binding to a sensor surface in real time, without labels.

Experiment [3] concerns the target T3, murine Fibroblast Activation Protein (FAP), expressed in HEK293 cells (mouse, UniProt P97321 1-761).
T3 construct: whole, on cells; Used on transfected HEK293 cells (flow cytometry) and as lysate of those cells coated on plates (ELISA); also called mouse FAP; muFAP
T3 sequence (looked up): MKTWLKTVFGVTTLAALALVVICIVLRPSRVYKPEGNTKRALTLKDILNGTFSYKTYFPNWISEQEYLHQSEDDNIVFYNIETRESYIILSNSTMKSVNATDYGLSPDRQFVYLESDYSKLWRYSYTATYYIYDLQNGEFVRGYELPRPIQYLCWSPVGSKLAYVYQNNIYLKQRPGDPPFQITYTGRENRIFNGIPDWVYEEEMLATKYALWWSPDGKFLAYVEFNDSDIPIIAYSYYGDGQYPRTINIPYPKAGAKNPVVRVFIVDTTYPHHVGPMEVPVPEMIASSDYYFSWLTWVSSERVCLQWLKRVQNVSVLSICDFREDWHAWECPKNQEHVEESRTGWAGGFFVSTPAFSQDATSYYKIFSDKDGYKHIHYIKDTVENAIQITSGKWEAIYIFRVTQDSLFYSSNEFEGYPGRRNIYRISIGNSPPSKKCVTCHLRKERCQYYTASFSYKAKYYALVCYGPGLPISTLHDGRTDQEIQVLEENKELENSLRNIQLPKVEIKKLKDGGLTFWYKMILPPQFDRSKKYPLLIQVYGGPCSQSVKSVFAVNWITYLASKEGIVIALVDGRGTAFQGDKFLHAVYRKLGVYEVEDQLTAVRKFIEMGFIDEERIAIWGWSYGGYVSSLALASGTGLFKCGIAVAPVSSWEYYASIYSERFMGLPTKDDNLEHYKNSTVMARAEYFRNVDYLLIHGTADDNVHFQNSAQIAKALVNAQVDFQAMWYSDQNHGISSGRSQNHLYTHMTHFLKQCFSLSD
Briefly: serial dilutions of Fab on 293 muFAP+ cells.

The target of experiment [4] is T4, human Fibroblast Activation Protein (FAP), expressed in transfected cells (human, UniProt Q12884 1-760).
T4 construct: whole, on cells; Used on transfected HT1080 / HEK293 cells (flow cytometry), as lysates of those cells coated on plates (ELISA) and as immunoprecipitate from their extracts; also called human FAP; huFAP
T4 sequence (looked up): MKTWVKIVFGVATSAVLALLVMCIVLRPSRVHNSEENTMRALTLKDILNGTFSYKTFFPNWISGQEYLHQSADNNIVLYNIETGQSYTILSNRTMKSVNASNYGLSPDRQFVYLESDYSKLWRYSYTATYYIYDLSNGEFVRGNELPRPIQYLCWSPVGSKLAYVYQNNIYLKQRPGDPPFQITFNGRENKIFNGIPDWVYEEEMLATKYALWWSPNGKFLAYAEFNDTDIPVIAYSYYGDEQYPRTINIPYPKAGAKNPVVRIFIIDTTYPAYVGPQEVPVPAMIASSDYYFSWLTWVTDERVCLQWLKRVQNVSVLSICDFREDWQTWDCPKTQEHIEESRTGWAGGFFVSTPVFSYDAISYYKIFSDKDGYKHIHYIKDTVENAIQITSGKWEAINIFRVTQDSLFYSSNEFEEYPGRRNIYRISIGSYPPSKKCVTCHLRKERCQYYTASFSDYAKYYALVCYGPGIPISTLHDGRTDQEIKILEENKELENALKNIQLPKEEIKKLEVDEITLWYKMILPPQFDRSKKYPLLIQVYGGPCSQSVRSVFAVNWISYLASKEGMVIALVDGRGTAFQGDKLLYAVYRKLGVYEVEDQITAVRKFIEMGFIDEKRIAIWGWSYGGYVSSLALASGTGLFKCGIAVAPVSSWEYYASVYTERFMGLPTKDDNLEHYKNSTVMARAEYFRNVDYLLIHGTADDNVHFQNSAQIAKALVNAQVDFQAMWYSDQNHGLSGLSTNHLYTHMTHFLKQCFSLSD
Briefly: binding to antigen expressing cell lines, apparent KD of bivalent IgG.

Changes are numbered by the printed parent chain.

T1 sequence (P27487 whole entry): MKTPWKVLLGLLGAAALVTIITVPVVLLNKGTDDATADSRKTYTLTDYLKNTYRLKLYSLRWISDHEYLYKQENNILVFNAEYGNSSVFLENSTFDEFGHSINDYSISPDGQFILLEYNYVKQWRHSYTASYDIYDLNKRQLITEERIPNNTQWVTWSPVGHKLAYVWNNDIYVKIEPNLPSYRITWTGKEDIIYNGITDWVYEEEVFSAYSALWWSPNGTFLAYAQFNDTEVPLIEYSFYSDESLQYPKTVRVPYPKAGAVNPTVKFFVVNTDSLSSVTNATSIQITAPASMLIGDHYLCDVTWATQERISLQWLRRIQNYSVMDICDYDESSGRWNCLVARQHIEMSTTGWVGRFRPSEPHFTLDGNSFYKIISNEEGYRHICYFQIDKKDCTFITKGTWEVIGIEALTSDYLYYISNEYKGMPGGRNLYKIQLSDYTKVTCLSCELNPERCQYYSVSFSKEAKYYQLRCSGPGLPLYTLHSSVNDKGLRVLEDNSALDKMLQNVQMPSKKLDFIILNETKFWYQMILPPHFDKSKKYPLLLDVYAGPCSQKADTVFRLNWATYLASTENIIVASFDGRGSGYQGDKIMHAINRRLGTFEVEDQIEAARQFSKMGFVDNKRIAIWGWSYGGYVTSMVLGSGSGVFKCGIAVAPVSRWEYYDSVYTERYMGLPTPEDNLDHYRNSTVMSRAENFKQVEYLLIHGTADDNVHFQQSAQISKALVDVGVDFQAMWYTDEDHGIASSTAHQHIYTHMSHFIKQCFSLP

B1: Fab ESC14 (Fab, V domains shown)
VH: EVQLVQSGAEVKKPGASVKVSCKASGYTFTSYGISWVRQAPGQGLEWMGWISAYNGNTNYAQKLQGRVTMTTDTSTSTAYMELRSLRSDDTAVYYCARDWSRSGYYLPDYWGQGTLVTVSS
VL: DVVMTQSPLSLPVTLGQPASISCRSSQSLLHSNGYNYLDWYLQRPGQSPHLLIFLGSNRASGVPDRFSGSGSGTDFTLKISRVEAEDVGIYYCMQALQTPPTFGQGTKVEIK
notes: Fully human Fab from a non-immunized phage library, made in E. coli TG-1, with myc tag and His tag
With B1, the binding result in experiment [1] is on record as “no binding (tested: 100 nM)”. In addition, the Kd in experiment [2] turned out to be 210 nM; in experiment [3], 251 nM.

B2: ESC14 IgG1 (antibody, V domains shown)
VH: B1 VH
VL: B1 VL
notes: Variable domains cloned into a full human IgG1 format, made in NS0 cells; also called IgG1 antibody ESC14; ESC14 antibody
With B2, in experiment [4], the Kd was approximately 1 nM.

B3: Fab ESC11 (Fab, V domains shown)
VH: HVQLQESGPGLVKPSETLSLTCTVSGGSISSNNYYWGWIRQTPGKGLEWIGSIYYSGSTNYNPSLKSRVTISVDTSKNQFSLKLSSVTAADTAVYYCARGARWQARPATRIDGVAFDIWGQGTMVTVSS
VL: ETTLTQSPGTLSLSPGERATLSCRASQTVTRNYLAWYQQKPGQAPRLLMYGASNRAAGVPDRFSGSGSGTDFTLTISRLEPEDFAVYYCQQFGSPYTFGQGTKVEIK
notes: as for B1
As to B3, in experiment [1], the binding result is reported as “no binding (tested: 100 nM)”. Also, the Kd was 10 nM in experiment [2] and 51 nM in experiment [3].

B4: ESC11 IgG1 (antibody, V domains shown)
VH: B3 VH with H1Q
VL: B3 VL
notes: Variable domains cloned into a full human IgG1 format, made in NS0 cells; also called IgG1 antibody ESC11; ESC11 antibody
As to B4, the Kd in experiment [4] was approximately 1 nM.
